From publication PMC13233901

B1: wild type (WT) estrogen receptor [human (endogenous in and MCF7)] / progesterone receptor [human (endogenous in and MCF7)] (parent)
chain 1: MTMTLHTKASGMALLHQIQGNELEPLNRPQLKIPLERPLGEVYLDSSKPAVYNYPEGAAYEFNAAAAANAQVYGQTGLPYGPGSEAAAFGSNGLGGFPPLNSVSPSPLMLLHPPPQLSPFLQPHGQQVPYYLENEPSGYTVREAGPPAFYRPNSDNRRQGGRERLASTNDKGSMAMESAKETRYCAVCNDYASGYHYGVWSCEGCKAFFKRSIQGHNDYMCPATNQCTIDKNRRKSCQACRLRKCYEVGMMKGGIRKDRRGGRMLKHKRQRDDGEGRGEVGSAGDMRAANLWPSPLMIKRSKKNSLALSLTADQMVSALLDAEPPILYSEYDPTRPFSEASMMGLLTNLADRELVHMINWAKRVPGFVDLTLHDQVHLLECAWLEILMIGLVWRSMEHPGKLLFAPNLLLDRNQGKCVEGMVEIFDMLLATSSRFRMMNLQGEEFVCLKSIILLNSGVYTFLSSTLKSLEEKDHIHRVLDKITDTLIHLMAKAGLTLQQQHQRLAQLLLILSHIRHMSNKGMEHLYSMKCKNVVPLYDLLLEMLDAHRLHAPTSRGGASVEETDQSHLATAGSTSSHSLQKYYITGEAEGFPATV
chain 2: MTELKAKGPRAPHVAGGPPSPEVGSPLLCRPAAGPFPGSQTSDTLPEVSAIPISLDGLLFPRPCQGQDPSDEKTQDQQSLSDVEGAYSRAEATRGAGGSSSSPPEKDSGLLDSVLDTLLAPSGPGQSQPSPPACEVTSSWCLFGPELPEDPPAAPATQRVLSPLMSRSGCKVGDSSGTAAAHKVLPRGLSPARQLLLPASESPHWSGAPVKPSPQAAAVEVEEEDGSESEESAGPLLKGKPRALGGAAAGGGAAAVPPGAAAGGVALVPKEDSRFSAPRVALVEQDAPMAPGRSPLATTVMDFIHVPILPLNHALLAARTRQLLEDESYDGGAGAASAFAPPRSSPCASSTPVAVGDFPDCAYPPDAEPKDDAYPLYSDFQPPALKIKEEEEGAEASARSPRSYLVAGANPAAFPDFPLGPPPPLPPRATPSRPGEAAVTAAPASASVSSASSSGSTLECILYKAEGAPPQQGPFAPPPCKAPGASGCLLPRDGLPSTSASAAAAGAAPALYPALGLNGLPQLGYQAAVLKEGLPQVYPPYLNYLRPDSEASQSPQYSFESLPQKICLICGDEASGCHYGVLTCGSCKVFFKRAMEGQHNYLCAGRNDCIVDKIRRKNCPACRLRKCCQAGMVLGGRKFKKFNKVRVVRALDAVALPQPVGVPNESQALSQRFTFSPGQDIQLIPPLINLLMSIEPDVIYAGHDNTKPDTSSSLLTSLNQLGERQLLSVVKWSKSLPGFRNLHIDDQITLIQYSWMSLMVFGLGWRSYKHVSGQMLYFAPDLILNEQRMKESSFYSLCLTMWQIPQEFVKLQVSQEEFLCMKVLLLLNTIPLEGLRSQTQFEEMRSSYIRELIKAIGLRQKGVVSSSQRFYQLTKLLDNLHDLVKQLHLYCLNTFIQSRALSVEFPEMMSEVIAAQLPKILAGMVKPLLFHKK

Variants of: B1
Assay: proximity ligation assay (PLA)
Conditions: with progesterone receptor [human (endogenous in T47D and MCF7)], read off a plot
[1] = MCF7 cells, basal (no added hormone), parent: 1.2
[2] = T47D cells, basal (no added hormone), parent: 6.4

Variant	response [1] [Dots/Cell]	response [2] [Dots/Cell]	response (T47D cells, R5020 (10 nM) for 30 min, parent: 11) [Dots/Cell]
chain 1 D538G	0.58	1	
chain 1 Y537S	0.68	1.6	13
